# Measured values from patent US7413866B2, “Compositions and methods for detecting and treating diseases and conditions related to chemokine receptors” (ChemoCentryx, Inc., priority 2001, dated 2008).
# T1: CCR1 (Homo sapiens, UniProt P32246)
# T1 sequence (P32246 1-355): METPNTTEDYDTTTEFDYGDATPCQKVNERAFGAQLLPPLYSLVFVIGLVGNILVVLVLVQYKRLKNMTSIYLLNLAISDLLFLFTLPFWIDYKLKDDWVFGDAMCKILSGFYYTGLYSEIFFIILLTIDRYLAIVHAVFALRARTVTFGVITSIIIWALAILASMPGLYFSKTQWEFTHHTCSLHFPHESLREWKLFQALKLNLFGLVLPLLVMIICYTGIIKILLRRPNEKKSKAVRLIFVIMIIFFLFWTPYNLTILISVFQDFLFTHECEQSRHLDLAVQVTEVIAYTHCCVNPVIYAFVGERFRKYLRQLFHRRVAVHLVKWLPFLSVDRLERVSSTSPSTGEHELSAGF
# T2: CCR1 expressed on NSO transfectants (UniProt P32246 1-355)
# T2 chain: T1 sequence (P32246 1-355)
# T3: CCR1 on monocytes (UniProt P32246 1-355)
# T3 chain: T1 sequence (P32246 1-355)
# T4: CCR1 expressed on HEK293 transfectants (UniProt P32246 1-355)
# T4 chain: T1 sequence (P32246 1-355)
# T5: CCR1 on THP-1 cells (acute monocytic leukemia) (UniProt P32246 1-355)
# T5 chain: T1 sequence (P32246 1-355)
# T6: CCR1 expressed on NSO transfectants (human, UniProt P32246 1-355)
# T6 construct: CCR1 transfectant of NSO cells; also called NSO-CCR1
# T6 sequence: T1 sequence (P32246 1-355)
# T7: CCR1 expressed on HEK293 transfectants (human, UniProt P32246 1-355)
# T7 construct: CCR1 cDNA transfected into HEK293 cells; also called HEK293-CCR1
# T7 sequence: T1 sequence (P32246 1-355)
# B1: mMIP-1γ: CCR1 ligand (protein)
# chain: QITHATETKEVQSSLKAQQGLEIEMFHMGFQDSSDCCLSYNSRIQCSRFIGYFPTSGGCTRPGIIFISKRGFQVCANPSDRRVQRCIERLEQNSQPRTYKQ
# B2: MIP-1α (ligand)
# chain: ADTPTACCFSYTSRQIPQNFIADYFETSSQCSKPGVIFLTKRSRQVCADPSEEWVQKYVSDLELSA
# modifications: also: 125I label where used as radioligand
# B3: MIP-1α: CC chemokine, CCR1 ligand (protein)
# chain: B2 chain
# B4: human I-TAC (ligand, UniProt O14625 22-94, looked up)
# chain: FPMFKRGRCLCIGPGVKAVKVADIEKASIMYPSNNCDKIEVIITLKENKGQRCLNPKSKQARLIIKKVERKNF
# modifications: 125I label where used as the radioligand
# B5: CKβ8 (1-99) (ligand)
# chain: RVTKDAETEFMMSKLPLENPVLLDRFHATSADCCISYTPRSIPCSLLESYFETNSECSKPGVIFLTKKGRRFCANPSDKQVQVCMRMLKLDTRIKTRKN
# notes: The numbers 1-99 count on the mature chemokine, not on the precursor; also called CCL23 (99-amino acid form)
# B6: mI-TAC: murine recombinant chemokine I-TAC (protein)
# chain: FLMFKQGRCLCIGPGMKAVKMAEIEKASVIYPSNGCDKVEVIVTMKAHKRQRCLDPRSKQARLIMQAIEKKNFLRRQNM
# B7: Leukotactin (ligand)
# chain: SFHFAADCCTSYISQSIPCSLMKSYFETSSECSKPGVIFLTKKGRQVCAKPSGPGVQDCMKKLKPYSI
# B8: HHV8 vMIP-II: viral recombinant chemokine (protein)
# chain: LGASWHRPDKCCLGYQKRPLPQVLLSSWYPTSQLCSKPGVIFLTKRGRQVCADKSKDWVKKLMQQLPVTAR
# What was measured:
# [1] = molecular target: CCR1 expressed on NSO transfectants (UniProt P32246); assay: 125I MIP-1α competition binding on cells; NSO-CCR1 cells; conditions: ligand
# [2] = molecular target: CCR1 expressed on HEK293 transfectants (UniProt P32246); assay: 125I MIP-1α competition binding on cells; HEK293-CCR1 cells; conditions: ligand
# [3] = molecular target: CCR1 on THP-1 cells (acute monocytic leukemia) (UniProt P32246); assay: 125I MIP-1α competition binding on cells; THP-1 cells; conditions: ligand
# CCR1 on monocytes [4] = molecular target: CCR1 on monocytes (UniProt P32246); assay: 125I MIP-1α competition binding on cells; monocytes; conditions: ligand
# MDA MB-231 cells = assay: Matrigel invasion assay; type: cell-based, human; conditions: breast tumor cells, 22 hrs
# Method: Invasion Assay. Invasion assays were performed as per the manufacturer's instructions. Briefly, chemokines were diluted in HBSS (Life Technologies, Gaithersburg, Md.) supplemented with 0.1% bovine albumin (Sigma Chemical Company, St. Louis, Mo.) and added to the lower wells of BD BioCoat Matrigel Invasion chambers (BD Biosciences, Bedford, Mass.). MDA MB-231 cells were added to the matrigel coated inserts and the plates were incubated at 37° C. in a humidified incubator at a 5% CO2/air mixture for 22 hrs. Following this incubation, the inserts were transferred to a new plate and the media in the inserts was removed. Using a cotton swab the matrigel plug was removed from each well. The filters were then stained using Protocol Hema staining system (Biochemical Sciences, Inc., Swedesboro, N.J.). Invading cells were examined under a Nikon Elipse E800 (Nikon, Inc., Melville, N.Y.) microscope with a 40× lens. Cells were counted in 5 fields of view of each filter. Data represent the mean of 5 fields of view from each filter tested in triplicate.
# [5] = molecular target: T8, CXCR4 on E17 fetal liver cells (Mus musculus, UniProt P70658); assay: SDF-1 mediated calcium mobilization in E17 fetal liver cells; type: cell-based; conditions: wildtype mouse embryo E17 fetal liver cells
# T8 construct: the E17 fetal liver cells also express CXCR4; from tissue; host or cells: fetal liver cells of wildtype mouse embryos, E17
# T8 sequence (P70658 whole entry): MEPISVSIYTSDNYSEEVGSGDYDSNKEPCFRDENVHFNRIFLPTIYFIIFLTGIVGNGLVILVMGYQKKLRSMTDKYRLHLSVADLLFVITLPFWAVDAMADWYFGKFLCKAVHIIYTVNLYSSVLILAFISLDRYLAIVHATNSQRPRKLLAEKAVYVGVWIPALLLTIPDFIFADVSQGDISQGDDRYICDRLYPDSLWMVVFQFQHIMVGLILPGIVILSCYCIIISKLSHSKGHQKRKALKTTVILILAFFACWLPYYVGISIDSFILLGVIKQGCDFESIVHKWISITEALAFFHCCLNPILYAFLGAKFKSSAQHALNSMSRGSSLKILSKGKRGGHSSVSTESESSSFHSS
# [6] = system: tumor cells expressing the tumor correlated form of CXCR4; assay: Serum starvation apoptosis of tumor cells; type: cell-based; conditions: serum starved overnight, compared to untreated controls
# CXCR4 on MCF-7 cells [7] = molecular target: T9, CXCR4 on MCF-7 cells (Homo sapiens, UniProt P25106); assay: 125I I-TAC competition binding on MCF-7 cells
# T9 construct: host or cells: MCF-7 (whole cells)
# T9 sequence (P25106 whole entry): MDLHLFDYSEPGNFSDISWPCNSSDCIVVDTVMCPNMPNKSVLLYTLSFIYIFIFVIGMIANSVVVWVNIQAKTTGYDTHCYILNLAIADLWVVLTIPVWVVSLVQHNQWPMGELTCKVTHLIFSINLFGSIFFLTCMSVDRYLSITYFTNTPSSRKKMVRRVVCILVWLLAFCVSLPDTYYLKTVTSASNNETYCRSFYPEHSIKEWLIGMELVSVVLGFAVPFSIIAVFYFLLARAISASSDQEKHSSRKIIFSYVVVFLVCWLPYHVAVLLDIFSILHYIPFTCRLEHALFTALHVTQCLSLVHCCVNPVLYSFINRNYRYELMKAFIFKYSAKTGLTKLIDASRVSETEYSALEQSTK
# Description: (§1) Binding Analysis. We employed our technique, DisplaceMax, to examine the global profile of chemokine ligand interaction with CXCR4 on MCF-7 and CEM-NKr cells. This technology employs expanded, efficiency-maximized radioligand binding using filtration protocols as described previously (Kledal T N, et al. Science 277:1656-1659 (1997); Dairaghi, et al. J Biol Chem 274:21569-74 (1999); Gosling, J. et al. J Immunol 164:2851-6 (2000)). […] Where indicated, anti-CXCR4 antibodies or isotype controls were included in the binding reactions. In these experiments cells were pre-incubated with the indicated concentration of antibody for 30 min at 4° C. prior to the addition of radiolabeled chemokine. Small molecules were included in some assays, where indicated. In these assays the compound was added to the plate to the indicated concentration followed by the addition of radiolabeled chemokine. All assays were then incubated for 3 hrs at 4° C. with gentle agitation. […] Scintillant (MicroScint 10, Packard) was added to the wells, and the filters were counted in a Packard Topcount scintillation counter. Data were analyzed and plotted using Prism (GraphPad Prism version 3.0a for Macintosh, GraphPad Software).
# [8] = molecular target: T10, CXCR4 on E13 fetal liver cells (Mus musculus); assay: Radiolabeled human-SDF-1 binding competition on E13 fetal liver cells; conditions: wildtype mouse embryo E13 fetal liver cells
# T10 construct: from tissue; host or cells: fetal liver cells of wildtype mouse embryos, E13
# T10 sequence (P56485 whole entry): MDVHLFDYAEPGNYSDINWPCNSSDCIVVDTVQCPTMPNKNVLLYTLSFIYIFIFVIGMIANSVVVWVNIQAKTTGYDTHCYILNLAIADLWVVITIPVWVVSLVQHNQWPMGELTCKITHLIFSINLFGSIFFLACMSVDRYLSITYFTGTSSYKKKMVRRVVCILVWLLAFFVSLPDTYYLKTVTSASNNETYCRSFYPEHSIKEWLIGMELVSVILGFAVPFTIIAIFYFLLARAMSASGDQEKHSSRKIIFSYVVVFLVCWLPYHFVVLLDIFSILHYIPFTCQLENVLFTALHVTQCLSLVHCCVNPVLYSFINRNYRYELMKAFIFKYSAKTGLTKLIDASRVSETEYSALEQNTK
# [9] = molecular target: T11, CXCR4 on MCF-7 cells (Homo sapiens); assay: 125I SDF-1α competition binding on MCF-7 cells; conditions: cold competitor array
# T11 construct: host or cells: MCF-7 (whole cells)
# T11 sequence (P25106 whole entry): as the sequence (P25106 whole entry) above
# Description: (§2) Binding Analysis. We employed our technique, DisplaceMax, to examine the global profile of chemokine ligand interaction with CXCR4 on MCF-7 and CEM-NKr cells. This technology employs expanded, efficiency-maximized radioligand binding using filtration protocols as described previously (Kledal T N, et al. Science 277:1656-1659 (1997); Dairaghi, et al. J Biol Chem 274:21569-74 (1999); Gosling, J. et al. J Immunol 164:2851-6 (2000)). […] Where indicated, anti-CXCR4 antibodies or isotype controls were included in the binding reactions. In these experiments cells were pre-incubated with the indicated concentration of antibody for 30 min at 4° C. prior to the addition of radiolabeled chemokine. Small molecules were included in some assays, where indicated. In these assays the compound was added to the plate to the indicated concentration followed by the addition of radiolabeled chemokine. All assays were then incubated for 3 hrs at 4° C. with gentle agitation. Following incubation in all binding assays, reactions were aspirated onto PEI-treated GF/B glass filters (Packard) using a cell harvester (Packard) and washed twice (25 mM HEPES, 500 mM NaCl, 1 mM CaCl2, 5 mM MgCl2, adjusted to pH 7.1). Scintillant (MicroScint 10, Packard) was added to the wells, and the filters were counted in a Packard Topcount scintillation counter. Data were analyzed and plotted using Prism (GraphPad Prism version 3.0a for Macintosh, GraphPad Software).
# CXCR4 on MCF-7 cells [10] = molecular target: T9, CXCR4 on MCF-7 cells; assay: 125I SDF-1α competition binding on MCF-7 cells
# Description: as §2
# CCR1 [11] = molecular target: T1, CCR1; assay: Intracellular Ca2+ mobilization via CCR1; type: cell-based; design: endogenous in cells; host or cells: THP-1, monocytes, neutrophils, immature DC (endogenous); also HEK293-CCR1 and NSO-CCR1 transfectants
# [12] = molecular target: T2, CCR1 expressed on NSO transfectants; assay: 125I MIP-1α competition binding on cells; NSO-CCR1 cells
# CCR1 on monocytes [13] = molecular target: T3, CCR1 on monocytes; assay: 125I MIP-1α competition binding on cells; monocytes
# [14] = molecular target: T4, CCR1 expressed on HEK293 transfectants; assay: 125I MIP-1α competition binding on cells; HEK293-CCR1 cells
# [15] = molecular target: T5, CCR1 on THP-1 cells (acute monocytic …); assay: 125I MIP-1α competition binding on cells; THP-1 cells
# [16] = molecular target: CXCR4 as expressed on breast tumor cells (MCF-7, MDA MB-231) (human) (UniProt P61073); assay: homologous competition against ^125I I-TAC on MCF-7 cells, medium alone
# [17] = molecular target: CXCR4 as expressed on breast tumor cells (MCF-7, MDA MB-231) (human) (UniProt P61073); assay: homologous competition against ^125I I-TAC on MCF-7 cells pre-incubated with excess MIG (~175 nM)
# [18] = molecular target: T6, CCR1 expressed on NSO transfectants; assay: competition against ^125I MIP-1α on NSO-CCR1 cells
# CCR1 [19] = molecular target: T1, CCR1; assay: CCR1 mediated cell migration; type: cell-based
# [20] = molecular target: T7, CCR1 expressed on HEK293 transfectants; assay: competition against ^125I MIP-1α on HEK293-CCR1 cells
# CXCR4 on CEM-NKr cells = molecular target: T12, CXCR4 on CEM-NKr cells (Homo sapiens, UniProt P61073); assay: 125I SDF-1α competition binding on CEM-NKr cells; conditions: cold competitor array
# T12 construct: host or cells: CEM-NKr (whole cells)
# T12 sequence (P61073 whole entry): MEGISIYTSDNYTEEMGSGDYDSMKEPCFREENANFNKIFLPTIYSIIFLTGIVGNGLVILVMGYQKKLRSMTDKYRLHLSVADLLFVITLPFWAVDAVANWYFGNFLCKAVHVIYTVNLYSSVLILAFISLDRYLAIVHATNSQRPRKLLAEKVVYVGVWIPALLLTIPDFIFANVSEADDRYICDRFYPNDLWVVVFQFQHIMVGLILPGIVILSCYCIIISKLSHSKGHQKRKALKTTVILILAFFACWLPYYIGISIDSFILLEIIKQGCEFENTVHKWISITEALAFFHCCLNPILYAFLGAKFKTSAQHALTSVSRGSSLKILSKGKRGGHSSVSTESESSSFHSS
# Description: as §1
molecule,measurement,setting,value
CKβ8 (25-99) (from UniProt P55773 46-120),IC50,[1],20 pM
same,IC50,[2],1340 pM
same,IC50,[3],270 pM
same,IC50,CCR1 on monocytes [4],250 pM
"SDF-1: CXC chemokine, ligand for CXCR4, isoform not stated",cell invasion,MDA MB-231 cells,induced cell invasion
same,intracellular calcium mobilization in E17 fetal liver cells,[5],mobilizing intracellular calcium
same,recovery from serum starvation induced apoptosis,[6],able to recover from the starvation
"MIG: monokine induced by gamma interferon, CXCR3 ligand",inhibition of 125I I-TAC binding to MCF-7 by cold chemokine competitor (in words),CXCR4 on MCF-7 cells [7]; MCF-7 cells,not inhibited
same,effect of pre-incubation with excess chemokine on 125I I-TAC binding to MCF-7,"CXCR4 on MCF-7 cells [7]; excess SDF-1β ~90 nM or excess MIG ~175 nM, 30 min at 4° C.",did not effect this binding profile
"I-TAC: recombinant human chemokine, reported CXCR3 ligand",competition with radiolabeled human-SDF-1 for binding to E13 fetal liver cells,[8],able to compete
same,"DisplaceMax displacement of 125I SDF-1α on MCF-7, affinity class",[9],high affinity
same,competition with / inhibition of 125I SDF-1α binding on MCF-7 (in words),CXCR4 on MCF-7 cells [10],does compete
B1,"Ca2+ mobilization in HEK293-CCR1, THP-1 and monocytes",CCR1 [11],able to mobilize Ca2+
same,Ca2+ mobilization in neutrophils,CCR1 [11],do not mobilize Ca2+
B2,IC50,[12],150 pM
same,IC50,CCR1 on monocytes [13],270 pM
same,IC50,[14],540 pM
same,IC50,[15],170 pM
B3,"Ca2+ mobilization in HEK293-CCR1, THP-1 and monocytes",CCR1 [11],able to mobilize Ca2+
same,Ca2+ mobilization in neutrophils,CCR1 [11],do not mobilize Ca2+
B4,IC50,[16],1000 pM
same,IC50,[17],1000 pM
B5,IC50,CCR1 on monocytes [13],10300 pM
same,IC50,[18],3900 pM
same,"induction of cell migration, neutrophils",CCR1 [19]; CCR1 expressed on neutrophils,does not induce cell migration
same,"induction of CCR1 mediated cell migration, THP-1 cells, monocytes and immature DC","CCR1 [19]; THP-1 cells, monocytes and immature DC",can induce CCR1 mediated cell migration
same,IC50,[20],64000 pM
same,"Ca2+ mobilization in HEK293-CCR1, THP-1 and monocytes",CCR1 [11],able to mobilize Ca2+
same,Ca2+ mobilization in neutrophils,CCR1 [11],do not mobilize Ca2+
same,IC50,[15],6300 pM
B6,"DisplaceMax displacement of 125I SDF-1α on MCF-7, affinity class",[9],high affinity
B7,IC50,[12],20 pM
same,IC50,CCR1 on monocytes [13],< 200 pM
same,IC50,[14],< 200 pM
same,"Ca2+ mobilization in HEK293-CCR1, THP-1 and monocytes",CCR1 [11],able to mobilize Ca2+
same,Ca2+ mobilization in neutrophils,CCR1 [11],do not mobilize Ca2+
same,IC50,[15],< 200 pM
B8,"DisplaceMax displacement of 125I SDF-1α on CEM-NKr, affinity class",CXCR4 on CEM-NKr cells,potential moderate affinity
